This is an account of results in the supplement of paper PMC7877785.

This data set in a line: self-splicing fitness, log relative to wild type (ln ratio); higher = more splicing; Tetrahymena group I intron in knt gene, E. coli kanamycin selection, DiMSum; sequences stand for … in CUCUCU…GGAGGGAAAAGUUAUCAGGCAUGCACCUGGUAGCUAGUCUUUAAACCAAUAGAUUGCAUCGGUUUAAAAGGCAAGACCGUCAAAUUGCGGGAAAGGGGUCAACAGCCGUUCAGUACCAAGUCUCAGGGGAAACUUUGAGAUGGCCUUGCAAAGGGUAUGGUAAUAAGCUGACGGACAUGGUCCUAACCACGCAGCCAAGUCCUAAGUCAACAGAUCUUCUGUUGAUAUGGAUGCAGUUCACAGACUAAAUGUCGGUCGGGGAAGAUGUAUUCUUCUCAUAAGAUAUAGUCGGACCUCUCCUUAAUGGGAGCUAGCGGAUGAAGUGAUGCAACACUGGAGCCGCUGGGAACUAAUUUGUAUGCGAAAGUAUAUUGAUUAGUUUUGGAGUACUCGUGGUCG
The method, boiled down: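 Library with all eight P1ex-region intron nucleotides randomised, intron inside the knt kanamycin-resistance gene on pET-22b(+), in E. coli BL21(DE3). Cells grew overnight at 37°C or 30°C on LB agar with or without 25 μg/mL kanamycin (plus 100 μg/mL carbenicillin, 50 μM IPTG, 0.2% rhamnose), in six replicate transformations. Pooled colonies were amplicon-sequenced on Illumina HiSeq 2500. DiMSum fitness is the error-weighted combination of wild-type-normalised replicate fold changes, kanamycin versus none.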

± gives the uncertainty stated by the source.

With ACUCAGCAAUAUUACGGAGA, the “self-splicing fitness (ln)” value runs as follows: (30 °C) -0.941 ± 0.12; (37 °C) -0.997 ± 0.13. As to ACUCAGCAAUAUUACGGAUU, the “self-splicing fitness (ln)” value was -0.597 ± 0.055 (30 °C) and 0.0271 ± 0.076 (37 °C). The like results for ACUCAGCAAUAUUACGGGAC were, in that order, -2.72 ± 0.17 and -1.6 ± 0.23. As for ACUCAGCAAUAUUACGGGAU, the “self-splicing fitness (ln)” value is, setting by setting: (30 °C) -1.32 ± 0.056; (37 °C) -0.522 ± 0.076. In the same order, the values of ACUCAGCAAUAUUACGGGCC are -1.32 ± 0.092 and -1.13 ± 0.11.

On to ACUCAGCAAUAUUACGGGUA, for which the “self-splicing fitness (ln)” value reads like this: (30 °C) -1.57 ± 0.099; (37 °C) -0.922 ± 0.083. On to ACUCAGCAAUAUUACGGUUC, for which the “self-splicing fitness (ln)” value reads like this: (30 °C) -2.68 ± 0.14; (37 °C) -2.33 ± 0.14. In the same order, the values of ACUCAGCAAUAUUACGGUUU are -0.62 ± 0.048 and -0.291 ± 0.057. The like results for ACUCAGCAAUAUUACGUAAG were, in that order, -0.973 ± 0.052 and -0.421 ± 0.078.

With ACUCAGCAAUAUUACGUAAU, the “self-splicing fitness (ln)” value reads like this: (30 °C) -0.934 ± 0.057; (37 °C) -0.31 ± 0.076. In the same order, the values of ACUCAGCAAUAUUACGUACC are -1.39 ± 0.09 and 0.482 ± 0.13. The like results for ACUCAGCAAUAUUACGUAUG were, in that order, -3.11 ± 0.24 and -1.35 ± 0.16. The like results for ACUCAGCAAUAUUACGUCCC were, in that order, -0.969 ± 0.13 and -0.71 ± 0.16. In the case of ACUCAGCAAUAUUACGUCCG, the “self-splicing fitness (ln)” value (30 °C) was -2.16 ± 0.14 and the “self-splicing fitness (ln)” value (37 °C) is -1.21 ± 0.15. The like results for ACUCAGCAAUAUUACGUGAU were, in that order, -1 ± 0.064 and -0.627 ± 0.078. The like results for ACUCAGCAAUAUUACGUGCG were, in that order, -0.485 ± 0.063 and -0.526 ± 0.078.

Consider ACUCAGCAAUAUUACGUUAG, for which the “self-splicing fitness (ln)” value is, setting by setting: (30 °C) -2.98 ± 0.13; (37 °C) -0.675 ± 0.11.

On to ACUGAGCAAUAUUACGAAGU, for which the “self-splicing fitness (ln)” value (30 °C) is -3.93 ± 0.3 and the “self-splicing fitness (ln)” value (37 °C) was -3.03 ± 0.31. For ACUGAGCAAUAUUACGAGGA, the “self-splicing fitness (ln)” value (30 °C) was -2.63 ± 0.23 and the “self-splicing fitness (ln)” value (37 °C) was -1.83 ± 0.17. Turning to ACUGAGCAAUAUUACGAUCA, the “self-splicing fitness (ln)” value (30 °C) is -2.89 ± 0.43 and the “self-splicing fitness (ln)” value (37 °C) is -2.9 ± 0.34.

For the sequence ACUGAGCAAUAUUACGAUCG, the “self-splicing fitness (ln)” value is, setting by setting: (30 °C) -1.65 ± 0.15; (37 °C) -1.99 ± 0.21.

Consider ACUGAGCAAUAUUACGAUCU, for which the “self-splicing fitness (ln)” value reads like this: (30 °C) -1.28 ± 0.12; (37 °C) -0.653 ± 0.1. For ACUGAGCAAUAUUACGAUUG, where the note is “37 °C”, the “self-splicing fitness (ln)” value was -3.25 ± 0.37.

Consider ACUGAGCAAUAUUACGCAAU, for which the “self-splicing fitness (ln)” value runs as follows: (30 °C) -2.79 ± 0.28; (37 °C) -2.03 ± 0.27. In the same order, the values of ACUGAGCAAUAUUACGCAUC are -2.22 ± 0.24 and -2.08 ± 0.24. On to ACUGAGCAAUAUUACGCCCG, for which the “self-splicing fitness (ln)” value is, setting by setting: (30 °C) -2.15 ± 0.25; (37 °C) -0.509 ± 0.22.

As to ACUGAGCAAUAUUACGCGAC, the “self-splicing fitness (ln)” value is -2.51 ± 0.43 (30 °C) and -1.46 ± 0.29 (37 °C).

As to ACUGAGCAAUAUUACGCUGU, the “self-splicing fitness (ln)” value was -3.42 ± 0.28 (30 °C) and -1.7 ± 0.25 (37 °C). For the sequence ACUGAGCAAUAUUACGGACG, the “self-splicing fitness (ln)” value reads like this: (30 °C) -2.2 ± 0.13; (37 °C) -1.9 ± 0.2. In the same order, the values of ACUGAGCAAUAUUACGGCGU are -1.07 ± 0.079 and 0.0319 ± 0.097. The like results for ACUGAGCAAUAUUACGGGCA were, in that order, -2.07 ± 0.14 and -1.08 ± 0.14. In the same order, the values of ACUGAGCAAUAUUACGUAGU are -3.48 ± 0.19 and -2.41 ± 0.25. For ACUGAGCAAUAUUACGUCCC, the “self-splicing fitness (ln)” value (30 °C) was -3.06 ± 0.39. Regarding ACUGAGCAAUAUUACGUCGG, the “self-splicing fitness (ln)” value (30 °C) is -2.82 ± 0.16 and the “self-splicing fitness (ln)” value (37 °C) is -2.47 ± 0.21. In the same order, the values of ACUGAGCAAUAUUACGUGAU are -3.6 ± 0.14 and -1.76 ± 0.097. In the same order, the values of ACUUAGCAAUAUUACGAAAG are -2.69 ± 0.19 and -0.697 ± 0.17.

As for ACUUAGCAAUAUUACGAAGU, the “self-splicing fitness (ln)” value was -3.91 ± 0.22 (30 °C) and -1.61 ± 0.19 (37 °C). On to ACUUAGCAAUAUUACGAAUG, for which the “self-splicing fitness (ln)” value is -2.24 ± 0.11 (30 °C) and -1.13 ± 0.12 (37 °C).

As to ACUUAGCAAUAUUACGACGA, the “self-splicing fitness (ln)” value is, setting by setting: (30 °C) -0.777 ± 0.089; (37 °C) -0.322 ± 0.088. Take ACUUAGCAAUAUUACGAGAA: the “self-splicing fitness (ln)” value by setting is: (30 °C) -2.06 ± 0.29; (37 °C) -2.07 ± 0.23. ACUUAGCAAUAUUACGAGGC: where the note is “30 °C”, the “self-splicing fitness (ln)” value was -3.25 ± 0.5. For the sequence ACUUAGCAAUAUUACGAUCA, the “self-splicing fitness (ln)” value was -1.45 ± 0.14 (30 °C) and -0.47 ± 0.13 (37 °C).

Regarding ACUUAGCAAUAUUACGCACG, the “self-splicing fitness (ln)” value (30 °C) was -1.55 ± 0.1 and the “self-splicing fitness (ln)” value (37 °C) is -0.683 ± 0.13.

On to ACUUAGCAAUAUUACGCAUC, for which the “self-splicing fitness (ln)” value was -2.69 ± 0.19 (30 °C) and -1.64 ± 0.2 (37 °C). The like results for ACUUAGCAAUAUUACGCCAG were, in that order, -2.16 ± 0.15 and -0.941 ± 0.17. The like results for ACUUAGCAAUAUUACGCGGU were, in that order, -3.26 ± 0.41 and -1.84 ± 0.26. In the same order, the values of ACUUAGCAAUAUUACGCUGC are -3.82 ± 0.32 and -2.36 ± 0.22. Take ACUUAGCAAUAUUACGCUGU: the “self-splicing fitness (ln)” value runs as follows: (30 °C) -3.85 ± 0.2; (37 °C) -2.19 ± 0.17. In the same order, the values of ACUUAGCAAUAUUACGGAUG are -1.73 ± 0.13 and -1.53 ± 0.2. In the same order, the values of ACUUAGCAAUAUUACGGGCA are -1.04 ± 0.091 and 0.0835 ± 0.096. Turning to ACUUAGCAAUAUUACGGUAU, the “self-splicing fitness (ln)” value by setting is: (30 °C) -3.18 ± 0.12; (37 °C) -2.5 ± 0.13. In the same order, the values of ACUUAGCAAUAUUACGGUGU are -2.79 ± 0.11 and -1.64 ± 0.097.

Consider ACUUAGCAAUAUUACGUACU, for which the “self-splicing fitness (ln)” value was -0.497 ± 0.094 (30 °C) and -0.384 ± 0.1 (37 °C).

ACUUAGCAAUAUUACGUAGG: the “self-splicing fitness (ln)” value is, setting by setting: (30 °C) -1.25 ± 0.079; (37 °C) -1.12 ± 0.11. Consider ACUUAGCAAUAUUACGUAUC, for which the “self-splicing fitness (ln)” value (30 °C) was -3.56 ± 0.22 and the “self-splicing fitness (ln)” value (37 °C) was -2.37 ± 0.24. On to ACUUAGCAAUAUUACGUCCU, for which the “self-splicing fitness (ln)” value runs as follows: (30 °C) -0.527 ± 0.085; (37 °C) -0.132 ± 0.13. In the same order, the values of ACUUAGCAAUAUUACGUUAG are -2.09 ± 0.09 and -1.5 ± 0.12. With AGAAAGCAAUAUUACGAAUA, the “self-splicing fitness (ln)” value runs as follows: (30 °C) -2.51 ± 0.17; (37 °C) -0.949 ± 0.14.

Regarding AGAAAGCAAUAUUACGACGC, the “self-splicing fitness (ln)” value is -0.72 ± 0.11 (30 °C) and -0.219 ± 0.14 (37 °C). The like results for AGAAAGCAAUAUUACGAGAC were, in that order, -2.65 ± 0.3 and -2.13 ± 0.47. Regarding AGAAAGCAAUAUUACGAUAC, the “self-splicing fitness (ln)” value was -1.78 ± 0.14 (30 °C) and -1.54 ± 0.19 (37 °C).

As for AGAAAGCAAUAUUACGAUCC, the “self-splicing fitness (ln)” value by setting is: (30 °C) -0.604 ± 0.07; (37 °C) 0.0529 ± 0.11. In the same order, the values of AGAAAGCAAUAUUACGAUGU are -0.998 ± 0.063 and -0.229 ± 0.083. AGAAAGCAAUAUUACGCAAU: the “self-splicing fitness (ln)” value is -2.18 ± 0.072 (30 °C) and -0.965 ± 0.075 (37 °C). On to AGAAAGCAAUAUUACGCCAC, for which the “self-splicing fitness (ln)” value (37 °C) is -2.07 ± 0.41. For AGAAAGCAAUAUUACGCUGA, the “self-splicing fitness (ln)” value was -3.08 ± 0.21 (30 °C) and -0.267 ± 0.15 (37 °C). AGAAAGCAAUAUUACGGCGU: the “self-splicing fitness (ln)” value by setting is: (30 °C) 0.239 ± 0.073; (37 °C) 0.133 ± 0.091.

Turning to AGAAAGCAAUAUUACGGCUC, the “self-splicing fitness (ln)” value is, setting by setting: (30 °C) -1.28 ± 0.091; (37 °C) -0.338 ± 0.12. Take AGAAAGCAAUAUUACGGGAA: the “self-splicing fitness (ln)” value was -2.72 ± 0.13 (30 °C) and -1.73 ± 0.12 (37 °C). In the same order, the values of AGAAAGCAAUAUUACGGGGC are -4.36 ± 0.3 and -2.05 ± 0.21. On to AGAAAGCAAUAUUACGGUAG, for which the “self-splicing fitness (ln)” value runs as follows: (30 °C) -3.84 ± 0.22; (37 °C) -2.37 ± 0.21. The like results for AGAAAGCAAUAUUACGUCGC were, in that order, -2.69 ± 0.16 and -1.76 ± 0.15. AGAAAGCAAUAUUACGUCUC: the “self-splicing fitness (ln)” value (30 °C) was -2.56 ± 0.43. As for AGAAAGCAAUAUUACGUGUG, the “self-splicing fitness (ln)” value (30 °C) is -2.13 ± 0.081 and the “self-splicing fitness (ln)” value (37 °C) was -1.78 ± 0.095. In the same order, the values of AGACAGCAAUAUUACGAAUG are -2.45 ± 0.11 and -1.86 ± 0.12. On to AGACAGCAAUAUUACGAGAA, for which the “self-splicing fitness (ln)” value was -2.15 ± 0.37 (30 °C) and -2.43 ± 0.31 (37 °C).
